Reference: US20070196354A1, “Method of treating diabetes by inhibiting degradation of at least one of crebl1, atf6, and hnf-4 alpha by htra” (priority 2003, published 2007)
Positions count from the first letter of the chain named. Names and notes keep the numbering of the source.

What was measured:
[1] = target: T1, HNF-4α (SEQ ID NO: 35) with N-terminal tag, as used in Example 6
T1 chain: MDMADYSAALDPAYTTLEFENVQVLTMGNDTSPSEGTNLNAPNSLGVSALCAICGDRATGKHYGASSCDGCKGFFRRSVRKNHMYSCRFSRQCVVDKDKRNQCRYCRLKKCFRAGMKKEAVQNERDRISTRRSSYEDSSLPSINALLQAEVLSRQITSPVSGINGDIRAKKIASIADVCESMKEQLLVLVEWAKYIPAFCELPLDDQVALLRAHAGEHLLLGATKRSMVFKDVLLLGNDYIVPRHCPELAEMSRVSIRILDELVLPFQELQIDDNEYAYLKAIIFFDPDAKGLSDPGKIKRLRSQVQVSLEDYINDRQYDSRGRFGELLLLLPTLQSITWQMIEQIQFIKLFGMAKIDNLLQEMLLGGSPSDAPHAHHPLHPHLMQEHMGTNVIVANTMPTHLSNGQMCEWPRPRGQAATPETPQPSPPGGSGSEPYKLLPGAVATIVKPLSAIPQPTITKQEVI

[2] = target: T2, biotinylated CREBL1 (N-terminal tagged-CREBL1 with biotinylated lysine residue within the protein)
T2 chain: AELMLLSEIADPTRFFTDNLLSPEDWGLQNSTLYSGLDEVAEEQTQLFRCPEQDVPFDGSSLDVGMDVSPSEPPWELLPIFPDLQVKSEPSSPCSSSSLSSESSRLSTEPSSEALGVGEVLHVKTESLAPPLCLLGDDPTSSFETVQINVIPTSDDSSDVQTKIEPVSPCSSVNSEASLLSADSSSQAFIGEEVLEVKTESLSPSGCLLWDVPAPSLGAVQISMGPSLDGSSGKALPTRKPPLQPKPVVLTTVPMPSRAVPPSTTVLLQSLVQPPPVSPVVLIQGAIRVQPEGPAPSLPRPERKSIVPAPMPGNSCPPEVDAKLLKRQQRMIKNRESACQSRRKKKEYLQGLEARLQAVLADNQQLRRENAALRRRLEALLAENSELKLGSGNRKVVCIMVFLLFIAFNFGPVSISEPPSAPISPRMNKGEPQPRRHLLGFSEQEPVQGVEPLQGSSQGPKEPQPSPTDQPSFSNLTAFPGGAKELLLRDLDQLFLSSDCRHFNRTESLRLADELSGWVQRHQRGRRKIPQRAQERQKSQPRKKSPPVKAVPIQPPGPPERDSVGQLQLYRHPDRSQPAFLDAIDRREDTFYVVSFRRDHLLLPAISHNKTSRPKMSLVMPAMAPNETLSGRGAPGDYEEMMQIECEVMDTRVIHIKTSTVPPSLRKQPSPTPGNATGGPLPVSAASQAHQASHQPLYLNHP

[3] = target: T3, ATF6 (SEQ ID NO: 18) with c-Myc-tag ligated at the N-terminal
T3 chain: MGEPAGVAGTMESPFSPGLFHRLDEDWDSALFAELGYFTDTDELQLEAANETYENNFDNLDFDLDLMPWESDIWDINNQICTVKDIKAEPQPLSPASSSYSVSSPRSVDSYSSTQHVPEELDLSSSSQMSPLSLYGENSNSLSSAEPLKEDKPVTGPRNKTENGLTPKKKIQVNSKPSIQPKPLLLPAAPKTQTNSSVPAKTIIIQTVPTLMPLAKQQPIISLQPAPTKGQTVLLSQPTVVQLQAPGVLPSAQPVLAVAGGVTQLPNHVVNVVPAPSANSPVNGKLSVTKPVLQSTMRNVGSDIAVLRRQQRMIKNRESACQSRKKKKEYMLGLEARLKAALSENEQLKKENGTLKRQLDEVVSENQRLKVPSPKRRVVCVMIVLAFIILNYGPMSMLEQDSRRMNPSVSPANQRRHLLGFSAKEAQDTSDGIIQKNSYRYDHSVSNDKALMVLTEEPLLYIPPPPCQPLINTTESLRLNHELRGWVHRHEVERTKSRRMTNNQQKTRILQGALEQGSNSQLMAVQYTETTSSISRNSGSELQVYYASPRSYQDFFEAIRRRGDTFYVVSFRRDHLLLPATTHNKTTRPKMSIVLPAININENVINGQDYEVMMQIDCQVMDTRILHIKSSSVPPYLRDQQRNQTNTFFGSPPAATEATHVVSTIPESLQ

[4] = target: T4, CREBL1 (SEQ ID NO: 16) with c-Myc-tag ligated at the N-terminal
T4 chain: T2 chain

B1: mature HtrA2 (SEQ ID NO: 4) with histidine (His)-tag ligated at the C-terminal (protein)
chain: MAVPSPPPASPRSQYNFIADVVEKTAPAVVYIEILDRHPFLGREVPISNGSGFVVAADGLIVTNAHVVADRRRVRVRLLSGDTYEAVVTAVDPVADIATLRIQTKEPLPTLPLGRSADVRQGEFVVAMGSPFALQNTITSGIVSSAQRPARDLGLPQTNVEYIQTDAAIDFGNSGGPLVNLDGEVIGVNTMKVTAGISFAIPSDRLREFLHRGEKKNSSSGISGSQRRYIGVMMLTLSPSILAELQLREPSFPDVQHGVLIHKVILGSPAHRAGLRPGDVILAIGEQMVQNAEDVYEAVRTQSQLAVQIRRGRETLTLYVTPEVTE
in vitro protease assay; western blotting of HNF-4α band [1]: the band of HNF-4α was reduced significantly after the reaction of active HtrA2 with HNF-4α for overnight (O/N) | in vitro protease assay; degradation pattern of biotinylated CREBL1 by western blotting (streptavidin HRP) [2]: remarkable reduction of the band of biotinylated CREBL1 was observed, and further, the band that was supposed to be a degradation product of CREBL1 was detected around 50 kDa | in vitro protease assay; western blotting of ATF6 band [3]: the band of ATF6 was reduced significantly after the reaction of active HtrA2 with ATF6 for four hours (4 h) or overnight (O/N) | in vitro protease assay; western blotting of CREBL1 band [4]: the band of CREBL1 was reduced significantly after the reaction of active HtrA2 with CREBL1 for overnight (O/N)

B2: mature HtrA2 (S306A) (SEQ ID NO: 6) with histidine (His)-tag ligated at the C-terminal (protein)
chain: B1 chain with S174A
in vitro protease assay; western blotting of HNF-4α band [1]: the degradation of HNF-4α by inactive HtrA2 (mature HtrA2 (S306A)) was not observed | in vitro protease assay; degradation pattern of biotinylated CREBL1 by western blotting (streptavidin HRP) [2]: the degradation of CREBL1 by inactive HtrA2 (mature HtrA2 (S306A)) was not observed, and the band around 50 kDa as above was not detected | in vitro protease assay; western blotting of ATF6 band [3]: the degradation of CREBL1 and ATF6 by inactive HtrA2 (mature HtrA2 (S306A)) was not observed | in vitro protease assay; western blotting of CREBL1 band [4]: the degradation of CREBL1 and ATF6 by inactive HtrA2 (mature HtrA2 (S306A)) was not observed
